In article PMC10458328, “The “life-span” of lytic polysaccharide monooxygenases (LPMOs) correlates to the number of turnovers in the reductant peroxidase reaction” (The Journal of Biological Chemistry, 2023):

Key:
purified protein [1] = substrate: O=C1O[C@H]([C@@H](O)CO)C(O)=C1O; test: purified protein; format: biochemical, Streptomyces coelicolor; conditions: H2O2 co-substrate (true Km from kcat app vs [AscA]), 50 mM sodium acetate pH 5.0, 25 °C, no polysaccharide, ping-pong
purified protein [2] = substrate: O=C1O[C@H]([C@@H](O)CO)C(O)=C1O; test: purified protein; format: biochemical, Neurospora crassa; conditions: H2O2 co-substrate (true Km from kcat app vs [AscA]), 50 mM sodium acetate pH 5.0, 25 °C, no polysaccharide, ping-pong

B1: ScAA10C (Streptomyces coelicolor A3(2)) (protein)
chain: HGVAMMPGSRTYLCQLDAKTGTGALDPTNPACQAALDQSGATALYNWFAVLDSNAGGRGAGYVPDGTLCSAGDRSPYDFSAYNAARSDWPRTHLTSGATIPVEYSNWAAHPGDFRVYLTKPGWSPTSELGWDDLELIQTVTNPPQQGSPGTDGGHYYWDLALPSGRSGDALIFMQWVRSDSQENFFSCSDVVFDGGNGEVTGIRGSGSTPDPDPTPTPTDPTTPPTHTGSCMAVYSVENSWSGGFQGSVEVMNHGTEPLNGWAVQWQPGGGTTLGGVWNGSLTSGSDGTVTVRNVDHNRVVPPDGSVTFGFTATSTGNDFPVDSIGCVAP
notes: copper-saturated; eps280 75,775; called ScAA10A by slip in places
B1 showed a Km (purified protein [1]) of 25 ± 2 µM, a kcat (purified protein [1]) of 0.64 ± 0.02 s⁻¹ and a kcat/Km (purified protein [1]) of 21000 ± 2000 M⁻¹ s⁻¹.

B2: NcAA9C (Neurospora crassa OR74A) (protein)
chain: HTIFQKVSVNGADQGQLKGIRAPANNNPVTDVMSSDIICNAVTMKDSNVLTVPAGAKVGHFWGHEIGGAAGPNDADNPIAASHKGPIMVYLAKVDNAATTGTSGLKWFKVAEAGLSNGKWAVDDLIANNGWSYFDMPTCIAPGQYLMRAELIALHNAGSQAGAQFYIGCAQINVTGGGSASPSNTVSFPGAYSASDPGILINIYGGSGKTDNGGKPYQIPGPALFTCPAGGSGGSSPAPATTASTPKPTSASAPKPVSTTASTPKPTNGSGSGTGAAHSTKCGGSKPAATTKASNPQPTNGGNSAVRAAALYGQCGGKGWTGPTSCASGTCKFSNDWYSQCLP
notes: N-terminal His not methylated; copper-saturated; eps280 46,910
In the case of B2, the Km (purified protein [2]) is reported as 145 ± 4 µM, the kcat (purified protein [2]) is reported as 5.3 ± 0.1 s⁻¹ and the kcat/Km (purified protein [2]) is reported as 36000 ± 1000 M⁻¹ s⁻¹.
